Our source for the % cells in the Anti-mouse-IgG-Fc-FITC positive gate values is patent publication US20250034271A1.

For assay [1], the target named is mouse CD40 (mCD40) on transfected CHO cells (mouse) (UniProt P27512). The assay can be described thus: flow cytometry, CHO-mCD40 cells, negative control, anti-mIgG Fc-FITC; x: Anti-mouse-IgG-Fc-FITC, y: SSC-H. (In general: In flow cytometry, cells or beads pass a laser one at a time.)
Assay [2] has as its target chimeric (mouse and human) CD40 (chiCD40) on transfected CHO cells (chimeric (mouse and human)). Nature of the assay: flow cytometry, CHO-chiCD40 cells, negative control, anti-mIgG Fc-FITC; x: Anti-mouse-IgG-Fc-FITC, y: SSC-H.
Assay [3] deals with monkey (rhesus macaque) CD40 (rmCD40) on transfected CHO cells (rhesus macaque). Nature of the assay: flow cytometry, CHO-rmCD40 cells, negative control, anti-mIgG Fc-FITC; x: Anti-mouse-IgG-Fc-FITC, y: SSC-H.
Chain of monkey (rhesus macaque) CD40 (rmCD40) on transfected CHO cells (rhesus macaque) (P25942 other isoform, or with tags, fused parts or gaps limits assumed): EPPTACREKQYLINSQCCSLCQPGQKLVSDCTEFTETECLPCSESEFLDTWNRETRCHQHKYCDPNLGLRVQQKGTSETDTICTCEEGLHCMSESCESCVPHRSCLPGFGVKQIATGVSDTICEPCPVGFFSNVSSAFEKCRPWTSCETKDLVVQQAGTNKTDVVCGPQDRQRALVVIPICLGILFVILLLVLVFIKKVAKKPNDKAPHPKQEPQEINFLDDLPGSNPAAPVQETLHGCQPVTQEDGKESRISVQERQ

Chain of mouse CD40 (mCD40) on transfected CHO cells (mouse) (P27512 20-289 limits assumed): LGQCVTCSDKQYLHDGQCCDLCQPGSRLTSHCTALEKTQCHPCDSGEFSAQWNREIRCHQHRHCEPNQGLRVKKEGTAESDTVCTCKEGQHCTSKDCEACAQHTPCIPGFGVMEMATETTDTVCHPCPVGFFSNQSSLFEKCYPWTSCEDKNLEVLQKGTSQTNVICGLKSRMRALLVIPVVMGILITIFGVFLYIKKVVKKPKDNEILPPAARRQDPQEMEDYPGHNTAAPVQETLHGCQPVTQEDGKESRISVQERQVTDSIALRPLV
Chain of chimeric (mouse and human) CD40 (chiCD40) on transfected CHO cells (chimeric (mouse and human)) (chain, as listed by the source mutant limits assumed): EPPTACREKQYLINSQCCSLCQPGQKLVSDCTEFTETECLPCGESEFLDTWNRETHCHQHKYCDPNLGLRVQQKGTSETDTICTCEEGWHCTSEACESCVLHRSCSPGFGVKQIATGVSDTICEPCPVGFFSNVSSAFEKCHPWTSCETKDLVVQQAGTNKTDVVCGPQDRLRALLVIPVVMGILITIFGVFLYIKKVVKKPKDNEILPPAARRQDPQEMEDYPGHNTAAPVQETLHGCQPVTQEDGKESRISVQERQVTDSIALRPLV

Take NC: the % cells in the Anti-mouse-IgG-Fc-FITC positive gate in assay [1] was 1.01%; in assay [2] it was 1.19%; in assay [3], 1.19%.
